Experiments:
Assay in all cases: cell_activity
[1] = test system: ZFN SBS#25191 (HLA-A3) (synthetic construct); conditions: HEK293, Surveyor assay; ZFN identity (pair 25191/25190) inferred from Table 1
[2] = test system: ZFN SBS#25190 (HLA-A3) (synthetic construct); conditions: HEK293, Surveyor assay; ZFN identity (pair 25191/25190) inferred from Table 1
[3] = test system: ZFN SBS#18889 (ZFN-L, HLA-A2) (synthetic construct); conditions: pair with 18881, EL/KK FokI, primary T cells, 2.5 ug each mRNA; 19% at 37C and up to 57% with 30C cold shock without EL/KK; Table 2 prints AGG where listing …
[4] = test system: ZFN SBS#18881 (ZFN-R, HLA-A2) (synthetic construct); conditions: pair with 18889, EL/KK FokI, primary T cells, 2.5 ug each mRNA; 19% at 37C and up to 57% with 30C cold shock without EL/KK

## ATGGAGCCGCGGGCGCCGTGGATAGAGC (double strand) [HLA-A3 target site of 25191]
[1]
  activity (% modified HLA-A3 alleles): 10

## CTGGCTCGCGGCGTCGCTGTCGAACCGC (double strand) [HLA-A3 target site of 25190]
[2]
  activity (% modified HLA-A3 alleles): 10

## GTATGGCTGCGACGTGGGGTCGGACGGG (double strand) [HLA-A2 target site of 18889]
[3]
  activity (% HLA-A2 negative cells): 52

## TTATCTGGATGGTGTGAGAACCTGGCCC (double strand) [HLA-A2 target site of 18881]
[4]
  activity (% HLA-A2 negative cells): 52
